The DeepSol protein solubility set

Test: soluble on expression in E. coli; label from the status in PepcDB or PDB records

| Sequence | soluble on expression in E. coli |
| --- | --- |
| MSLNAIHRILMTTDGSITAIIEAVTQKKVEVETLEQKIIRADRELAELLEIDEGDEVNYRVVYLRANGEIYAKAISFTPLKRLENSFREDLMRADIPIGKIMRKHNIEARREIRWSRVEEADLALAKELGIADRRVISRNYNIIHRGKVLINITEFFPMERFRIEGYHHHHH | soluble |
| VVTSVADENVASRIASWGTGPAPDPRLDYAHAHLKGRRGRSPARPNAPIGARSFAVGRKICRVERFTLLEHGFVGHALHRVPCAGLVALVMSACSLAVCREVGNYAQRRVGRFAFFEQTFVRHALTPRCSRTDSKTSYTQLNRICKFPPHWV | not soluble |
| MNQWLKKKRESLGYTQESFAKEIGIAKTTYSSYEQGYRNPTVQTAKKMAKILQVPWTIFFDEEVLETYDF | not soluble |
| MFPLNDLSLKTQPVQLNKVTSNTESTIKQHELVSDDAIINELSSELVSCLGNGKFTPISEDSKLFNMLSEFKLLHSEYFEWGDYSLWFQDFSIYNKIGFIMIEKIRELVTHPFGINLEHHHHHH | not soluble |
| MSLASKPSLLFVDDSKVMRLAADKMLGREFRVEVAENGLQAWTMVCHNPSISVVFSDLAMPEMDGFALLKKIRTSEDEGVAGLPVIIVTGAENDDEARAEALRLGGTDFISKPFNSTDLLARARAHANYQNERKEFAKQAMIDPLTRLGNRRYLLHRLRQELALAARQQYRLSVVQLEICQFNQLFVQLGKKRTDMVLLKLAQSLRGVIRKEDSLARSSVAQFTVLLPSAGPNGAKRFVERALKVSERLAFQFRGKVQRLPLTVIIHTPAVHAGLAPRQVQLALEEQLKQARKLGPGTVLSDDADTTLSVDESAPILTIEQALVLLRAGKPRAVVSALPDLERQLAPLLELMKRSASDQEGHHHHHH | not soluble |
| MFQSSAAPAPQTADVTNPFGNFAAPSAFPTNVPPPAAHSAPFGVQPAPQHSAAPFYANLHQAPPMQSQAPNGHQAAPFGYPNAHPDDLARMTAQMSLNQQGAPAGWNTTTSAVSNNPFGATSAPQPMYTAPMGMYQQPFGAQPMWNPAMAAYGQQYGYGQPVPPQQQHQIQLVHAAMAAKNAAQAQQAQAASADPFGL | not soluble |
| SASTIYTCKECGSDLNLNPNDLFPPDFYFEAGNKGTLSFAAVDAEKFRFEKEDKIMPFFETLNYWGIQRKRTKIKCTSCNHLIGYIYDDGPPLTGGIGQYGFGPSQVIPRAPRYRFKTKARQDGWQYGGLTAFWN | soluble |
| SLTRPNTDYSCGGFLSQPSGDFSSPFYPGNYPNNAKCVWDIEVQNNYRVTVIFRDVQMEGGCNYDYIEVFDGPYRSSPLIARVCDGARGSFTSSSNFMSIRFISDHSITRRGFRAEYYSSPSN | soluble |
| MGSSHHHHHHSSGLVPRSGHMEPRGTKRKAEKTEVEKPLNKLPRAVPSLRTQPSLYSGPFPFYRRPSELGCFSLDAQRQYHGDARALRYYSPPPINGPGPDFDLRDGYPDRYQPRDEEVQERLDHLLRWVLEHRNQLEGGPGWLAGATVTWRGHLTKLLTTPYERQEGWQLAASRFQGTLYLSEVETPAARAQRLARPPLLRELMYMGYKFEQYMCADKPGGSPDPSGEVNTNVAYCSVLRSRLGNHPLLFSGEVDCLNPQAPCTQPPSCYVELKTSKEMHSPGQWRSFYRHKLLKWWAQSFLPGVPHVVAGFRNPEGFVCSLKTFPTMEMFENVRNDREGWNPSVCMNFCAAFLSFAQSTVVQDDPRLVHLFSWEPGGPVTVSVHRDAPYAFLPSWYVETMTQDLPPLSKTPSPKD | soluble |
| MEFEGCSGFRQRLVLSTLSGKPVKIRNIRSKDDNPGLRDFEASFIRMLDKLTNGTRIEINQTGTVLFYQPGLLYGGSVEHECNVQRSVGYYLEALLMLVPFMKTPIKAVLKGITNHPTDPSVDLLKVTAVPLMKRFGINGDGLEIKVVKRGMAPGGGGEVHFSCPVSRSMKPVQLTEAGKIKRIRGTAFSVRVSPQMANRIVDSARSILNKFIPDIYIYTDHMKGPNSGKSPGFGLGLVAETLNGVFLGAEVVSTPQGQGEMQLPEDLGRNCAKLLLEEIYRGGCVDSTNQSLALLYMTLGQQDVSKTLLGPLSPYTMDFLRHIRDFFQIMFKIETQKPSEDECKGGEKVLMTCVGAGYNNISKSIK | not soluble |
| MRYWKNSRIKMFEQEDEWISKTQMKKQMNDLQDLGMALTKLSNDTLKKIGLDADLYEAVTAYKKITSNGALKRQAQFIGRLMRDTDPAPIEAFLAKLRGDDAAHNAFLQRVEQARVRLLADDGALTQFMSDFPHADAGKLRTLIRNTKKEQEQNKPPKNFRALFQELKTVMENGDAEI | not soluble |
| MGSDKIHHHHHHMLSNLWKRQAPQMVGIDIGSHEVKAILLGKTADGYKILSHAAVPVKKGAINDHDIRDADAVVECLRQIKRILPKSVKYAAVAVSGSAVMTKVIYMDASLSEEEMEAQIEIEADNLIPYSLDEVSIDFETLNVNSTDPSKVDVLLSACRTDNIDTRVDALDEVELETKVVDVEGYALGRAVELVLGQLPEGARQKAVAMVDIGANMTTFCVVESGETTFIREQAFGGELFTQSILSFYGMSYEQAEKAKIEGDLPRNYMFEVLSPFQTQLLQQIKRTLQIYCTSSGKDKVDYLVLCGGTSKLEGMANLLTNELGVHTIIADPFQGCLHADESVKNILQPSISKYMVACGLALRSYGQWRT | not soluble |
| MGSSHHHHHHSSGLVPRGSHMKVYYECAPCFLRQAREAIDLATDDEELKLRVMENILELLSERFRRGQVSNELGTRMHRLIKDMTGSEDPYLDEKRRCNEIALRFLPTVRDYLECHSDLESHVKVAITGNIIDFGALGLDFDHDRGIQESLRAPLTINHVPLLEDRLREASEVLYLLDNTGEILFDRPLIEKLAGYDVSVKVAVKGEPILNDACMEDALEAGLDEVAEIVTTGTDSVGIVYSDLSDEFRDMLDGTELVIAKGMGNYEGLTEISDGSRDIFCLLNAKCSAIARDLGVARGDNVAVKI | soluble |
| MAHHHHHHMGPRKSNAFASGKDDGAAAGKVRKVGGNGVGGSSATNSGSHKHGGAAAATMADIYTNEERAFLESQLALFTSGGGGSGGTDFARMTKEQWFAGLPTLVSATEKLLQAAADRYQQTCRERAAAAASVNGAQNAGSLPSADSSGVGKHGTTASSSHANSCTAEGIAPSGVAGSSDHRSTPAGGTPAQFAEENAYIIAQAQQLQWYPFTYQRWVELLLEPGKYHTACNDGGLRGDAIQTSLRRCILVTYPAVEGGDVI | soluble |
| MSLNILVIGTGAIGSFYGALLAKTGHCVSVVARSDYETVKAKGIRIRSATLGDYTFRPAAVVRSAAELETKPDCTLLCIKVVEGADRVGLLRDAVAPDTGIVLISNGIDIEPEVAAAFPDNEVISGLAFIGVTRTAPGEIWHQAYGRLMLGNYPGGVSERVKTLAAAFEEAGIDGIATENITTARWQKCVWNAAFNPLSVLSGGLDTLDILSTQEGFVRAIMQEIRAVAAANGHPLPEDIVEKNVASTYKMPPYKTSMLVDFEAGQPMETEVILGNAVRAGRRTRVAIPHLESVYALMKLLELRTSKSLWGNEGHHHHHH | soluble |
| MSLKTELTLLEQTLTLHRFPKRNNETLQAWDAGDEYLIQHVEQLALPESSHIVIINDHFGTLSCWFSQKHKVSMMSDSYIAHQATQANLQQNQRPPVQLLTTLDPVPNDASVVLLQLPKSNRHLVWILSQLRKALSPNIPIIAVNKAKEIHTSTLNLFEKHLGPTTTSLAWKKHRLVFSSATVNPANEVNPECGWSIEPYAITLTNLPNVYSGESLDLGSRFILEHLPADPTLEDFIDLGCGNGVLSVRLGQLNPQAKITCVDESFMAIASAQKNLHDNLGKRDIHCIANNCLDGFPAHSSSMIVCNPPFHQQQTITDHIAWQMFCDSKHVLKKGGKLWVIGNRHLGYDVKLARLFGKSHVRVIANNSKFVILQAIKSEGHHHHHH | soluble |
| NEDCNTIFGADFSHEGETPGLGAEITRSEFSGQFIGKEIFKEGEFRSVAVVKKGQKAEGKDYVDGISGGTLTSDGVNEMLISSLRPYALYLMNNVKK | not soluble |
| RVAGSAIDYWRAGILGKRRVRVENHIVLLGWNGSRTMHLIRMLQHEEEGKRPIVLCSRSDIENPLPGEIHFIKVTSYTDAQEMKNANITDASCIIVDNLSDDITLSAALYCASVNPDAHLLAYFKDDALGRLLSQHCPKAECIPAVGAEMLAKAAVDPGSSALHQELLASTRGMTQYSVIYPENQPITTIESIFGFIKKRHHATLIAFDIGNGIQLNPDLDAEVPPGTKLFYIADERIDDFAWKEMNKEQ | not soluble |
| MDYQQLANQIKQWAIELGFEKVGICDVDLSEHEPALQAWLDAGYHGEMDWMARHGMMRARPAELLPGTLRVISARINYLPPQAQFASNLSDPNQAYISRYALGRDYHKLVRNQLKKLGEKIEQEVGKLGYRPFVDSAPILERPLAQKAGLGWTGKHSLILDKENGSWFFLGELLVDIPLPVDEPSENQCGKCTACITSCPTNAIVAEGVVDARRCVSYLTIEYSGVIPLEFRRAMGNRIYGCDDCQLVCPWNRFAPLTQQSDFHRRQSLNNADLVVLFEWDEATFLKNMEGSAIRRIGHQQWRRNLIIAMGNAPYSPRIIDTLQRHLGQSELLDEHIHWALEEQTQKTATPRQHARLIRIIEKGLPRDA | not soluble |
| MEVPVHPLSQDPTAAWREISKTQRVIKVTMKPPTTTVAPNKARVVCMSDTHSLTPYIKFDIPDGDIFIHAGDFTKCGQLEEVEEFNTWIGALPHRHKIVIAGNHELSFDRTFTHPFQKSKSHASSSKHTGMSILDDLPTLGNAKENLESAVQTQNVRDVLTNCRYLEDELLEIWGIQIYGSPWQPEFCRWAFNVPRGTACLDKWNQIPEGIDILVTHTPPVGHGDLCCSGVRAGCVELLSTVQQRVRPKYHVFGHVHEGYGITSDGRIIFVNASTCDINYLPNNAPIVFDVTLPPGFRKDLEHHHHHH | soluble |
| MGSDKIHHHHHHMTQLFLHSDTPNEKELISIYEKAVSEAVELYIFSAYLTHWDVKNKLNSKLQEFKFIFGQDFGLSKKEAIRKVLKWLPSHLKFTLMVAQGIQGFHPKAVFWKNDKNEYYALIGSSNLTHAAFNSNYEANILTKISEQDFIKVKSWADEIAMKSIPVSEDWLEEYQEAEINYKKSTVRQSVMDKLFMEMPNYNQELIAARRKQMRNHQTVCNQLKNLIKQCAAGKIDNNDFYGEFNKLWSWKSENKGEGVGNRFQDKTWKRTGKSSDFRKLCIAIQSVFDAPLTERDNVVAKQIDWLKECGVSTRGSVFSEMLCQEYPDRYPVLNAPIKKFLEENKFKSAKGASEGSKYIDLSMKLRALLAMQSEIKDLAELDVLVQAEYRNRTDIDWE | not soluble |
| MKSGEKDYSVKEAMIFSQRIAQLSKALWKCVEKDWQQWIKPYDLNINEHHILTIAYHLKGASISEIAKFGVMHVSTAFNFSKKLEERGYLVFSKKEDDKRNTYIEITDKGEELLLRLMEEYDPENNSVFNGALALRNFYGKFPENIELIAILRNIYGQDFIDIFEKSLEDIEENFTESDQKLVKK | not soluble |
| MVDSYDDSLDGEKSKTQVKRELHALVDLGERLTTLKADVLAKLPLTDALRKALAEAPKHTANIARKRHILFIGKLMRDQDQEAILVLLDQLDASTRQYNERFHNLERWRDRLIAGDDADLEKFVIEYPDADRQQLRSLIRQAQHEVARNKPPATSRKIFKYIRELDELQRGLR | not soluble |
| MSAGQRKEQKLIPVERRQIILEMVAEKGIVSIAELTDRINVSHMTIRRDLQKLEQQGAVVLVSGGVQSPGRVAHEPSHQVKTALAMTQKAAIGKLAASLVLPGSCIYLDAGTTTLAIAQHLIHMESLTVVTNDFVIANYLLDNSNCTIIHTGGAVCRENRSCVGEAAATMLCSLMIDQAFISASSWSVRGISTPAEDKVTVKRAIASASRQRVLVCDATKYGQVATWLALPLSEFDQIITDDGLPESASRALAKQDLSLLVAKNELEHHHHHH | soluble |
